Data published in patent US20240409960A1, “METHOD FOR CONTROLLING PROTEIN FUNCTION” (The University of Tokyo, priority 2021, published 2024).

Experiments:
Assay type in all cases: cell-based, human
[1] = tested on: StopFluc luciferase reporter gene in HEK293FT cells; experiment: luciferase-based HDR (Homology-directed repair) assay of Cas9 endonuclease activity
Excerpt: For constructing a luciferase reporter for detecting Cas9 endonuclease activity, the sequence encoding firefly luciferase (Fluc) was amplified from pGL4.31 vector (Promega). The firefly luciferase with an in-flamed stop codon (StopFluc) was produced by an overlapping PCR extension method. The primer (5′-[…]-3′: SEQ ID No: 40) was used for PCR. The Stop-Fluc construct was inserted into the HindII-XhoI site of pcDNA 3.1/V 5-HisA having the CMV promoter. A luciferase donor vector was constructed by inserting the reverse firefly luciferase sequence into the XhoI and HindIII site of the bacterial expression pCold-I vector (Clontech), and was used as donor DNA.
HEK293T cells (American Type Culture Collection: ATCC) were cultured at 37° C. under 5% CO2 in Dulbecco's Modified Eagle Medium (DMEM: Thermo Fisher Scientific) supplemented with 10% fetal bovine serum (FBS: Thermo Fisher Scientific), 100 units/ml of penicillin and 100 μg/ml of streptomycin (Thermo Fisher Scientific) and 2 mM GlutaMAX (Thermo Fisher Scientific).
For luciferase assay, HEK 293 cells were plated at 25,000 cells per well on a 96-well flat clear-bottom microplate (Greiner Bio-One), and were then cultured for 24 hours at 37° C. in 5% CO2. The cells were transfected with cDNAs encoding destabilized Cas9 or an empty vector (negative control) along with the luciferase reporter (StopFluc), donor DNA (Fluc) and Cas9 encoding gRNA, using Lipofectamine 3000 (Thermo Fisher Scientific) at 37° C. The total amount of DNA was 50 ng per well. The transfection ratio of the destabilized Cas9, the luciferase reporter, the donor DNA, and the gRNA was set to be equal (1:1:1:1). […] Bioluminescence measurement was performed for 1 second per well at room temperature using a Centro XS^3 LB 960 plate-reading luminometer (Berthold Technologies).
Full-length Cas9 was used as a positive control. […] Bioluminescence measurement was performed for 1 second per well at room temperature using a Centro XS^3 LB 960 plate-reading luminometer (Berthold Technologies).

[2] = tested on: FRT sites (Floxed (FRT)-STOP Fluc reporter) in HEK293 cells; experiment: luciferase assay of Flp-FRT DNA recombination in HEK293 cells; conditions: 5 ng plasmid, 24 or 48 hours
Experimental: (§1) For constructing the luciferase reporters detecting for the activities of Flp-FRT recombinase, VCre-Vlox recombinase and Dre-rox recombinase, the FRT site ([…]: SEQ ID No: 37), the Vlox site ([…]: SEQ ID No: 38), the rox site ([…]: SEQ ID No: 39), were inserted into HindIII and KpnI sites and ClaI and EcoRI sites in the pcDNA3.1 (+) vector of the luciferase reporter (of loxP-stop-loxP-Fluc).
(§2) For luciferase assay, HEK 293 cells were plated at 25,000 cells per well on a 96-well flat white microplate (Thermo Fisher Scientific), and were then cultured for 24 hours at 37° C. in 5% CO2. The cells were transfected with cDNAs encoding destabilized Cre along with the luciferase reporter (loxP-stop-loxP Fluc), using X-tremeGENE9 reagent (Merck Millipore) at 37° C. The total amount of DNA was 50 ng per well. Twenty-four hours after the transfection, TMP or DMSO was added into the cells, and the cells were further cultured for 24 hours or 48 hours. Just before the luciferase assay, the medium was replaced with Hanks' balanced salt solution (HBSS) (Thermo Fisher Scientific) containing 0.2 mM D-luciferin potassium salt. Bioluminescence measurement was performed for 1 second per well at room temperature using a Centro XS^3 LB 960 plate-reading luminometer (Berthold Technologies).

[3] = tested on: Vlox sites (Floxed (Vlox)-STOP Fluc reporter) in HEK293 cells; experiment: luciferase assay of VCre-Vlox DNA recombination in HEK293 cells; conditions: 5 ng plasmid, TMP 10 nM or 500 nM or DMSO, 24 or 48 hours
Experimental: as §1, §2

## SPEED-Cas9: split spCas9 (a.a. 2-713 and 714-1,368) tagged with NZ/CZ leucine zippers and DD sequences, joined via P2A; SEQ ID No: 28
[1]; 12.5 ng plasmid, DMSO, 48 hours
  background endonuclease activity in the absence of TMP: extremely low background level of endonuclease activity, comparable to that of the negative control group using the pcDNA3.1 empty vector plasmid
[1]; 12.5 ng plasmid, TMP 500 nM, 48 hours
  TMP-dependent endonuclease activity: extremely high TMP-dependent endonuclease activity
[1]; TMP 500 nM (FIGS. 9d and e)
  TMP-dependent endonuclease activity compared with full-length Cas9: comparable to that of full-length Cas9

B1: SPEED-Flp: split Flp (a.a. 2-374 and 375-423), single DD on the N-terminal and C-terminal sides; SEQ ID No: 16 (protein, listed as Saccharomyces cerevisiae)
chain: MVSKYPYDVPDYARSGGSGGMISLIAALAVDYVIGMENAMPWNLPADLAWFKRNTLNKPVIMGRHTWESIGRPLPGRKNIILSSQPSTDDRVTWVKSVDEAIAACGDVPEIMVIGGGRVIEQFLPKAQKLYLTHIDAEVEGDTHFPDYEPDDWESVFSEFHDADAQNSHSYCFEILERRGGSGGSGGKLVPKKKRKVGGSQFDILCKTPPKVLVRQFVERFERPSGEKIASCAAELTYLCWMITHNGTAIKRATFMSYNTIISNSLSFDIVNKSLQFKYKTQKATILEASLKKLIPAWEFTIIPYNGQKHQSDITDIVSSLQLQFESSEEADKGNSHSKKMLKALLSEGESIWEITEKILNSFEYTSRFTKTKTLYQFLFLATFINCGRFSDIKNVDPKSFKLVQNKYLGVIIQCLVTETKTSVSRHIYFFSARGRIDPLVYLDEFLRNSEPVLKRVNRTGNSSSNKQEYQLLKDNLVRSYNKALKKNAPYPIFAIKNGPKSHIGRHLMTSFLSMKGLTELTNVVGNWSDKRASAVARTTYTHQITAIPDHYFALVSRYYAYDPISKEMIALGSGSGATNFSLLKQAGDVEENPGPLEKDETNPIEEWQHIEQLKGSAEGSIRYPAWNGIISQEVLDYLSSYINRRIGGSGGSGGMISLIAALAVDYVIGMENAMPWNLPADLAWFKRNTLNKPVIMGRHTWESIGRPLPGRKNIILSSQPSTDDRVTWVKSVDEAIAACGDVPEIMVIGGGRVIEQFLPKAQKLYLTHIDAEVEGDTHFPDYEPDDWESVFSEFHDADAQNSHSYCFEILERR
modifications: MISC_FEATURE - HAtag; DOMAIN 21..179 Degradation Domain; SIGNAL 190..197 Nuclear Localization Signal; MISC_FEATURE - N-terminal side of Flp; MISC_FEATURE - P2A; MISC_FEATURE - C-terminal side of Flp; DOMAIN 656..814 Degradation Domain
[2]
  background DNA recombination activity in the absence of TMP: extremely low background level of DNA recombination activity comparable to a negative control group using the pcDNA3.1 empty vector plasmid
[2]; TMP 10 nM or 500 nM
  TMP-dependent DNA recombination activity: extremely high TMP-dependent DNA recombination activity

B2: DD-Flp: Flp tagged with single DD; SEQ ID No: 15 (protein, listed as Saccharomyces cerevisiae)
chain: MVSKYPYDVPDYARSGGSGGMISLIAALAVDYVIGMENAMPWNLPADLAWFKRNTLNKPVIMGRHTWESIGRPLPGRKNIILSSQPSTDDRVTWVKSVDEAIAACGDVPEIMVIGGGRVIEQFLPKAQKLYLTHIDAEVEGDTHFPDYEPDDWESVFSEFHDADAQNSHSYCFEILERRGGSGGSGGKLVPKKKRKVGGSQFDILCKTPPKVLVRQFVERFERPSGEKIASCAAELTYLCWMITHNGTAIKRATFMSYNTIISNSLSFDIVNKSLQFKYKTQKATILEASLKKLIPAWEFTIIPYNGQKHQSDITDIVSSLQLQFESSEEADKGNSHSKKMLKALLSEGESIWEITEKILNSFEYTSRFTKTKTLYQFLFLATFINCGRFSDIKNVDPKSFKLVQNKYLGVIIQCLVTETKTSVSRHIYFFSARGRIDPLVYLDEFLRNSEPVLKRVNRTGNSSSNKQEYQLLKDNLVRSYNKALKKNAPYPIFAIKNGPKSHIGRHLMTSFLSMKGLTELTNVVGNWSDKRASAVARTTYTHQITAIPDHYFALVSRYYAYDPISKEMIALKDETNPIEEWQHIEQLKGSAEGSIRYPAWNGIISQEVLDYLSSYINRRI
modifications: MISC_FEATURE - HAtag; DOMAIN 21..179 Degradation Domain; MISC_FEATURE - Flp
[2]
  background DNA recombination activity in the absence of TMP: high background DNA recombination activity comparable to full-length Flp

B3: SPEED-VCre: split VCre (a.a. 2-277 and 278-380), single DD on the N-terminal and C-terminal sides; SEQ ID No: 20 (protein, listed as Vibrio parahaemolyticus)
chain: MVSKYPYDVPDYARSGGSGGMISLIAALAVDYVIGMENAMPWNLPADLAWFKRNTLNKPVIMGRHTWESIGRPLPGRKNIILSSQPSTDDRVTWVKSVDEAIAACGDVPEIMVIGGGRVIEQFLPKAQKLYLTHIDAEVEGDTHFPDYEPDDWESVFSEFHDADAQNSHSYCFEILERRGGSGGSGGKLVPKKKRKVGGIENQLSLLGDFSGVRPDDVKTAIQAAQKKGINVAENEQFKAAFEHLLNEFKKREERYSPNTLRRLESAWTCFVDWCLANHRHSLPATPDTVEAFFIERAEELHRNTLSVYRWAISRVHRVAGCPDPCLDIYVEDRLKAIARKKVREGEAVKQASPFNEQHLLKLTSLWYRSDKLLLRRNLALLAVAYESMLRASELANIRVSDMELAGDGTAILTIPITKTNHSGEPDTCILSQDVVSLLMDYTEAGKLDMSSDGFLFVGVSKHNTCIKPKKDKQTGSGSGATNFSLLKQAGDVEENPGPLEGEVLHKPITTKTVEGVFYSAWETLDLGRQGVKPFTAHSARVGAAQDLLKKGYNTLQIQQSGRWSSGAMVARYGRAILARDGAMAHSRVKTRSAPMQWGKDEKDGGSGGSGGMISLIAALAVDYVIGMENAMPWNLPADLAWFKRNTLNKPVIMGRHTWESIGRPLPGRKNIILSSQPSTDDRVTWVKSVDEAIAACGDVPEIMVIGGGRVIEQFLPKAQKLYLTHIDAEVEGDTHFPDYEPDDWESVFSEFHDADAQNSHSYCFEILERR
modifications: HAtag; DOMAIN 21..179 Degradation Domain; SIGNAL 190..197 Nuclear Localization Signal; MISC_FEATURE - N-terminal side of VCre; MISC_FEATURE - P2A; MISC_FEATURE - C-terminal side of VCre; DOMAIN 613..771 Degradation Domain
[3]
  background and TMP-dependent DNA recombination activity: results similar to those of SPEED-Cre
